{"source": "paper PMC5485662", "about": "(Nature medicine, 2016)", "key": {"HA of A/USSR/92/1977 [1]": {"molecular_target": "T1, HA of A/USSR/92/1977 (Influenza A virus A/USSR/92/1977 …, UniProt P03453, strain)", "experiment": "BLI"}, "HA of A/USSR/92/1977 [2]": {"molecular_target": "T1, HA of A/USSR/92/1977", "experiment": "cell-based or functional assay"}, "[3]": {"molecular_target": "HA ectodomain of wild-type A/California/07/2009 (pdm2009) (Influenza A virus A/California/07/2009 …)", "experiment": "BLI"}}, "data": [{"binder": "Fab of inferred intermediate I-2 of lineage CL6515 (Fab, V domains shown) VH: EVQLVQSGAEVKKPGESLKISCKGSGYSFTSYWIGWVRQMPGKGLEWMGIIYPGDSDTRYSPSFQGQVTISADKSISTAYLQWSSLKASDTAMYYCARVVADREGFGYYYGMDVWGQGTTVTVSS VL: EIVLTQSPGTLSLSPGERATLSCRASQSVDSSSLAWYQQKPGQAPRLLIYAASSRATGIPDRFSGSGSGTDFTLTISRLEPEDFAVYYCQQCGSSPWTFGQGTKVEIK", "values": [{"measurement": "Kd", "setting": "HA of A/USSR/92/1977 [1]", "value": 1.9, "unit": "µM"}, {"measurement": "IC50 of neutralisation (microneutralization, MDCK cells) of A/USSR/92/1977 virus", "setting": "HA of A/USSR/92/1977 [2]", "value": 0.012, "unit": "µg/mL"}]}, {"binder": " (Fab, V domains shown) VH: EVQLVQSGAEVKKPGESLKISCKGSGYSFTSYWIGWVRQMPGKGLEWMGIIYPGDSDTRYSPSFQGQVTISADKSISTAYLQWSSLKASDTAMYYCARVVADREGFGYYYGMDVWGQGTTVTVSS VL: not shown", "values": [{"measurement": "Kd", "setting": "[3]", "value": "> 50", "unit": "µM"}]}, {"binder": "Fab of antibody D1 H1–53 (donor 1, 2011–12 cohort) (Fab, V domains shown) VH: QVQLQESGPGLVKPSETLSLTCTVSGGSITNYFWSWIRQPPGKGLEWIGYISYSGSTNHNPSLKSRVTMSLDTSKKQFSLKLSSVTAADMAVYFCARGERFGESPYYSYHMDVWGQGTTVTVSS VL: not shown", "values": [{"measurement": "Kd", "setting": "[3]", "value": "> 100", "unit": "µM"}]}, {"binder": "Fab of antibody D1 H1–12 (donor 1, 2011–12 cohort) (Fab, V domains shown) VH: QVQLQESGPGLVKPSETLSLTCSVSGGSLNTYYWSWIRQPPGKGLEWIGYIYYSGNTNYNPSLKSRVAISVDTSKNQFSLKLTSVTAADTAVYYCARLYMVRGELWGFYFDHWGQGTLVTVSS VL: QSVLTQPASVSGSPGQSITISCTGTSSDVGSYNLVSWYQHHPGKAPKLMIYEDIERPSGVSNRFSGSKSGNTASLTISGLQAEDEGDYYCCSYAGSSTSWVFGGGTKLTVL", "values": [{"measurement": "Kd", "setting": "[3]", "value": "> 100", "unit": "µM"}]}, {"binder": "Fab of antibody D1 H1–2 (donor 1, 2011–12 cohort) (Fab, V domains shown) VH: QVQLQESGPGLVKPSETLSLRCAVSGSSISSLFYWGWIRQPPGKGPEWIGSIYHSGSTYYNPSLKSRVTISVDASKTQFSLNLNSVTAADTAVYYCAREYRILDERSNYFDAWGQGSPVTVSS VL: SYELTQPPSVSVSPGQTVSITCSGDKMGDKYASWYQQKPGQSPFLVIYQDNKRPSGIPERFSGSNSGNTATLTISGTQAMDEADYYCQTWDISSGVVFGGGTKL", "values": [{"measurement": "Kd", "setting": "[3]", "value": "> 100", "unit": "µM"}]}]}
